Assays:
[1] = target: T1, human CD70 on cells (CD70-positive 786-O cells, Raji cells, CHO-S cells expressing human full-length CD70, … (human, UniProt P32970 1-193)); assay: cell-based or functional assay
T1 sequence (looked up): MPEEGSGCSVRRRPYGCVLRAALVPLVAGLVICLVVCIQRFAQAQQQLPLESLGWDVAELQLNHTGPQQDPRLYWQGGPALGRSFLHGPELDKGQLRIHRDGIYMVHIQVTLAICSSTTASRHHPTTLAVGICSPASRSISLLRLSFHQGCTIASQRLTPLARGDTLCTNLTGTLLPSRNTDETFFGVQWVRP

[2] = target: T2, His-tagged CD70 protein extracellular domain (His-TNC-CD70) (human); assay: SPR Biacore T200, antibody captured by anti-human Fc, His-TNC-CD70 in flow, 1:1 model
T2 construct: Expressed in 293 cells; also called human His-TNC-CD70 antigen; human CD70 antigen
T2 chain: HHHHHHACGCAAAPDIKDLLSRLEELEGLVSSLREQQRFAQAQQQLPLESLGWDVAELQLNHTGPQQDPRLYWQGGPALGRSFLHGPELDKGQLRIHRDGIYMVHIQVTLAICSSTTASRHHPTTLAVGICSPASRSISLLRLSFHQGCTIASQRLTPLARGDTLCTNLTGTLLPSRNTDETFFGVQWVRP
Protocol: The affinity of the chimeric and humanized antibodies of the present disclosure for the human CD70 antigen was tested using a Biacore instrument. The procedures are as follows:
The human Fc capture molecules were covalently coupled to a CM5 biosensor chip (CAT #BR-1005-30, GE) according to the method described in the instructions of the human Fc capture kit (CAT #BR-1008-39, GE) for affinity capture of the antibodies to be tested. Then, a human His-TNC-CD70 antigen (set forth in SEQ ID NO: 1) flowed through the surface of the chip, and the reaction signal was detected in real time using a Biacore T200 instrument to obtain association and dissociation curves. After the dissociation was completed for each cycle, the biochip was washed and regenerated with a regeneration solution configured in the human antibody capture kit (GE). Data were fitted using a 1:1 model.

[3] = target: fusion protein of the CD70 protein extracellular domain and Human-IgG1-Fc (human CD70-Fc) (human); assay: ELISA, plate coated with 1 µg/mL human CD70-Fc, HRP goat anti-human F(ab')2 detection
fusion protein of the CD70 protein extracellular domain and Human-IgG1-Fc (human CD70-Fc) (human), sequence (chain, as listed by the source limits assumed): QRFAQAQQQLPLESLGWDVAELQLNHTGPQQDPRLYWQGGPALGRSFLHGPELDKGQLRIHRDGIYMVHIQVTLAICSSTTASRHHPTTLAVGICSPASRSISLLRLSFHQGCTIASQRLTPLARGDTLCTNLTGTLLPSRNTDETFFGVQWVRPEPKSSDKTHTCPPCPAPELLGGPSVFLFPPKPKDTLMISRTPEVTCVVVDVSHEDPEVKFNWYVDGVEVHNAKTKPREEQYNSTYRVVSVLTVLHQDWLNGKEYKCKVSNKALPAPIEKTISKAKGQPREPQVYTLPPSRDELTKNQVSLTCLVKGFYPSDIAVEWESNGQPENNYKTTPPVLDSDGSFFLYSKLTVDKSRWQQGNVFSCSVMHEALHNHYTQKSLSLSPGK
Protocol: (§1) The binding ability of the anti-CD70 antibodies was determined by the amount of the antibodies bound to the CD70 antigen protein immobilized on the ELISA plate. 1 μg/mL human CD70-Fc (set forth in SEQ ID NO: 2), monkey CD70-Fc (set forth in SEQ ID NO: 82) and mouse CD70-Fc (set forth in SEQ ID NO: 83) were coated, incubated and blocked. […] OD450 values were measured on a microplate reader.

[4] = target: T3, fusion protein of the murine CD70 protein extracellular domain and Human-IgG1-Fc (mouse CD70-Fc) (mouse); assay: ELISA, plate coated with 1 µg/mL mouse CD70-Fc, HRP goat anti-human F(ab')2 detection
T3 construct: also called mouse CD70 antigen
T3 sequence (chain, as listed by the source limits assumed): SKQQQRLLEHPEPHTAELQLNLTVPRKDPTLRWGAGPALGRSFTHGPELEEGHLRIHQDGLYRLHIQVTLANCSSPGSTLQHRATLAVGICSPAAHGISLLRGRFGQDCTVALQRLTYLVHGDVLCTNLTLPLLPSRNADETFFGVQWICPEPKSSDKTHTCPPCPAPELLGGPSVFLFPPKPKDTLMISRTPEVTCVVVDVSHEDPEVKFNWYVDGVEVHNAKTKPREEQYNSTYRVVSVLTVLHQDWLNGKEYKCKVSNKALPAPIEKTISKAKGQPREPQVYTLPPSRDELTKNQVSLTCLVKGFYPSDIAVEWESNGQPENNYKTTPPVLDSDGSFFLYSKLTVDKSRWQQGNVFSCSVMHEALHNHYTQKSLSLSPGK
Protocol: as §1

[5] = target: T4, fusion protein of the monkey CD70 protein extracellular domain and Human-IgG1-Fc (monkey CD70-Fc) (monkey); assay: ELISA, plate coated with 1 µg/mL monkey CD70-Fc, HRP goat anti-human F(ab')2 detection
T4 construct: also called monkey CD70 antigen
T4 sequence (chain, as listed by the source limits assumed): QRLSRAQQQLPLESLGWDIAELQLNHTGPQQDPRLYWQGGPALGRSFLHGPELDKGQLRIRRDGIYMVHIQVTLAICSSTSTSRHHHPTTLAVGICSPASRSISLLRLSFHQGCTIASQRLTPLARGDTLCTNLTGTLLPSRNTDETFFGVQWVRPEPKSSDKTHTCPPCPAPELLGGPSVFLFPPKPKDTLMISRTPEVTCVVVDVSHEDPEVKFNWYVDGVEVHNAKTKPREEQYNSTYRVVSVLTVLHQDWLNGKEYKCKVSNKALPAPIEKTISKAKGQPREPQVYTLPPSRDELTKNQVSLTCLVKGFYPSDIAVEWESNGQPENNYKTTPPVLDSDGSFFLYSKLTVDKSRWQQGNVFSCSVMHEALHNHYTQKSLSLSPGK
Protocol: as §1

[6] = target: T1, human CD70 on cells (CD70-positive …); assay: flow cytometry on CD70-positive Raji cells, Alexa Fluor 488 goat anti-human (H+L) detection
Protocol: (§2) 786-O cells (ATCC, CRL-1932) or Raji cells (ATCC, CCL-86) at 1×10⁶ cells/mL were blocked with 1% BSA PBS buffer, followed by the addition of diluted anti-CD70 antibody samples at different concentrations were added, and the mixture was incubated for 1 h. After the plate was washed twice, Alexa Fluor 488-goat anti-human (H+L) antibody (Invitrogen, CAT #A 11013) was added, and the mixture was incubated for 1 h. After the plate was washed twice, fluorescence signals were read using a flow cytometer.

[7] = target: T1, human CD70 on cells (CD70-positive …); assay: flow cytometry on CD70-positive 786-O cells, Alexa Fluor 488 goat anti-human (H+L) detection
Protocol: as §2

[8] = target: T1, human CD70 on cells (CD70-positive …); assay: flow cytometry competition on CHO-S cells expressing human full-length CD70; blocked ligand: biotin-labeled CD27-Fc, Alexa Fluor 488 streptavidin detection
Protocol: The cell-blocking activity of the anti-CD70 antibodies was assayed by flow cytometry. CHO-S cells expressing human full-length CD70 (Invitrogen, R80007) at 1×10⁶ cells/mL were blocked with 1% BSA PBS buffer, followed by the addition with diluted anti-CD70 antibody samples at different concentrations and biotin-labeled CD27-Fc (set forth in SEQ ID NO: 84), and the mixture was incubated for 1 h. After the plate was washed twice, Alexa Fluor 488-streptavidin (Invitrogen, CAT #S11223) was added, and the mixture was incubated for 1 h. After the plate was washed twice, fluorescence signals were read using a flow cytometer.

B1: huF4011 (antibody, human IgG1, kappa, V domains shown)
VH: EVQLVQSGAEVKKPGSSVKVSCKASGDTFPRYNMHWVRQAPGQGLEWMGAIFPGTGETSYNQNFKGRVTLTADKSTSTAYMELSSLRSEDTAVYYCARNSYYDYAWFTYWGQGTLVTVSS
VL: DIVMTQSPDSLAVSLGERATINCRASKSVSSSGYSFMHWYQQKPGQPPKLLISLADNLESGVPDRFSGSGSGTDFTLTISSLQAEDVAVYYCQHSREFPPTFGQGTKLEIKR
notes: Humanized IgG1
[1]
  IC50 (ng/mL), inhibition of IL-8 secretion mediated by CD70/CD27 binding (U266 cells + HT1080/CD27 cells): 14.2 ng/mL
  Imax (%), maximum inhibition rate of IL-8 secretion from CD27 cells: 93.8%
[2]
  Kd: 0.0465 nM
  koff: 0.000145 s⁻¹
  kon: 3.12e+06 M⁻¹ s⁻¹
[3]
  EC50 (read off the curve): ~0.03 µg/mL
[4]
  binding result: no binding (tested: 10 µg/mL (log 1))
[5]
  EC50 (read off the curve): ~0.05 µg/mL
[6]
  EC50 (read off the curve): ~0.02 µg/mL
[7]
  EC50 (read off the curve): ~0.03 µg/mL
[8]
  IC50 (read off the curve): ~0.4 µg/mL
